{"source": "patent US7422862B2", "about": "“Methods for identifying modulators of apoptosis” (The Burnham Institute, priority 2001, dated 2008)", "key": {"[1]": {"molecular_target": "T1, Bak (Homo sapiens, UniProt Q16611)", "T1 sequence (Q16611 1-211)": "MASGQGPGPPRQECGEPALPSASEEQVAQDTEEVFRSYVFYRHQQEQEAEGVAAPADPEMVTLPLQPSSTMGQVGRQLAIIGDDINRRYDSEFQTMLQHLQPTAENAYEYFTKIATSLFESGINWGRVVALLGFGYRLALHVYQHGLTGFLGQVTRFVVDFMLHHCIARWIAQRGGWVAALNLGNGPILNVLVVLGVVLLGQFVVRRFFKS", "test": "Bak-induced apoptosis in transfected cells", "format": "cell-based", "parameters": "expressed in transfected cells", "details": "CSM14.1 or PC-3 cells, transient co-transfection", "protocol": "(A-D) CMS14.1 neuronal cells were transfected with plasmids encoding Flag-HN peptide or Flag-control (27-amino-acid) peptide, together with GFP-encoding plasmid at 4:1 ratio. Cells were either cultured without further treatment (open bars) or subjected to various apoptotic stimuli for various times (dark bars), including (A) STS for 8 h (dark symbols=Flag-control; open symbols=Flag-HN), (B) Serum-deprivation for 72 h, (C) 10 joules/m2 Uvirradiation followed by 24 h culture, and (D) 50 ng/ml TNFa in […] for 24 h. Cells were then fixed and stained with DAPI to determine the percentage of apoptotic cells, evaluating=200 GFP-positive cells per sample (mean±SD; n=3). (inset) Lysates prepared from replicate cultures of transfected cells were normalized for total protein content and analyzed by immunoblotting using anti-Flag (top) and anti-tubulin (bottom) antibodies, confirming production of similar amounts of Flag-control and Flag-HN peptides. […] (Upper panel) After 72 hr, cell lysates were prepared and 100 ug was analyzed by immunoblotting using anti-HN and anti-tubulin (as a loading control) antibodies. (Lower panel) At 72 hr after siRNA transfection, SF268 cells were cultured with 0.1 μM STS for 8 hrs, then % apoptosis was determined (mean+std dev; n=3). […] Apoptosis (%) was measured 48 hrs later among GFP-positive cells. […]"}, "[2]": {"molecular_target": "purified recombinant Bax (Homo sapiens, UniProt Q07812)", "sequence (Q07812 whole entry)": "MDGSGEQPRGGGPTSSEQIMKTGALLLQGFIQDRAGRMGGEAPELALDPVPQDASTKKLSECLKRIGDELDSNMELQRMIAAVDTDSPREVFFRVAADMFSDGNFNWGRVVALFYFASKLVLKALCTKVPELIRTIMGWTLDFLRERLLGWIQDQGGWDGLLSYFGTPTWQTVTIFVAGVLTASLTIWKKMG", "test": "Isolated mitochondria: Bax association and cytochrome c release assay", "format": "biochemical", "details": "100 μM peptide preincubated with Bax, HCT116 mitochondria", "protocol": "(A-B) Humanin peptide prevents STS-induced Bax translocation in vivo. Cos-7 cells were first transfected with GFP-Bax plasmids. After 24 hrs, untagged wild-type or C8P mutant Humanin peptides were introduced into cells using ChariotTM reagent, and 2 h later cells were treated with 1 μM STS. After 4 h, the percentage of cells with translocated Bax was determined (mean±SD; n=3) by confocal microscopy (A) and representative photomicrographs (B). (C) Wild-type or C8P mutant Humanin peptides were introduced into Cos7 cells using ChariotTM reagent. Cytosolic (C) and mitochondria-containing (M) fractions were isolated by differential centrifugation 23 and analyzed by immunoblotting using anti-Bax (top), Hsp60 (middle) (mitochondrial marker), or Tubulin (bottom) (cytosol marker) antibodies. (D) HN or mutant control double-strand siRNAs were transfected into SF268 cells. After 48 h, cells were cultured without (Control) or with 0.1 uM STS. After 24 hr, cells were fractionated and analyzed by immunoblotting as above. (E) Isolated mitochondria were mixed with 400 ng Bax protein, with or without preincubating Bax with 100 uM Humanin or Humanin(C8P) peptides for 10 min. After 3 h at 30° C., mitochondria were centrifuged and the resulting pellets (P) and supernatants (S) were analyzed by immunoblotting using anti-Cytochrome c (top), Hsp60 (middle), and Bax (bottom) antibodies. (F) HN peptide enforces the interaction of Bax TM domain with Bax.TM. Lysates from HEK293T cells expressing Flag-Bax.TM were pretreated with or without Humanin or Humanin(C8P) peptides. Lysates were then mixed in vitro with lysates of HEK293T cells expressing GFP-TM(Bax). Immunoprecipitations were performed with anti-Flag antibody, analyzing lysates and immunoprecipitates (IP) by immunoblotting using monoclonal anti-GFP antibody.\nTo determine whether Humanin can act directly on Bax, the effects of Humanin on isolated mitochondria were tested. Addition of recombinant purified Bax protein to mitochondria in vitro induces cytochrome c release (Jurgensmeier et al., Proc. Natl. Acad. Sci. USA 95:4997-5002 (1998)). […] Therefore Humanin can directly suppress Bax targeting to mitochondria, without requirement for intact cells.\nCytochrome c release assays were performed as follows. Mitochondria were isolated from HCT116 cells by differential centrifugation as described above. Purified recombinant human Bax protein (400 ng for each sample) was pre-incubated with or without 100 μM synthetic Humanin peptide or mutant Humanin (C8P) peptide for 10 min at 4° C. The untreated or peptide pre-treated Baxprotein samples were then mixed with equal amount of HCT116 mitochondria (in a volume of 40 μl) at 30° C. for 3 hours. […]"}}}
{"substance": "GFP-HN: Wild-type full-length Humanin fused to Green Fluorescent Protein", "values": [{"measurement": "Bak-induced apoptosis", "setting": "[1]", "result": "not affected"}]}
{"substance": "Humanin: 24 amino acid polypeptide, cytosolic form of human Humanin (SEQ ID NO:2); used as synthetic peptide or expressed fusion", "values": [{"measurement": "Bax association with mitochondria", "setting": "[2]", "result": "suppressed"}, {"measurement": "cytochrome c release", "setting": "[2]", "result": "reduced"}]}
